Experimental data: US20240067696A1 (ZEALAND PHARMA A S, published 2024)
Non-standard residues stand in square brackets, D forms with d. Aib = CC(C)(N)C(=O)O

molecular target: human glucagon receptor (human, UniProt P47871 26-477); experiment: cell-based or functional assay
Sequence (P47871 26-477): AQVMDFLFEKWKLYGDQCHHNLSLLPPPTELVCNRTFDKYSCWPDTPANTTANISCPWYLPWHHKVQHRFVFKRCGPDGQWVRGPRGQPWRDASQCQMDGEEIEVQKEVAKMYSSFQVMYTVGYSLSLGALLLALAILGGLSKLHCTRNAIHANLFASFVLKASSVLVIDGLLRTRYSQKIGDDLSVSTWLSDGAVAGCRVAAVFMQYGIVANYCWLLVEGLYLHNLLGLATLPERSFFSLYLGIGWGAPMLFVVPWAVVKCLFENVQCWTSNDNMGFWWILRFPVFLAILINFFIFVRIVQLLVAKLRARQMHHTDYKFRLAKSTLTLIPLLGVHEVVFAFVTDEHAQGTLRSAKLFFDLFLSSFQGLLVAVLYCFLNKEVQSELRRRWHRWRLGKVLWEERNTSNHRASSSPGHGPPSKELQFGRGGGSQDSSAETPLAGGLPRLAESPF

GCG-R EC50 in vitro [nM] (cAMP, AlphaScreen, HEK293 cells expressing human Glucagon-R)	Binder
0.026	H-HSQGTFTSDYSKYLDKRRAEDFVSWLEST-OH [Compound 18]
0.03	H-HSQGTFTSDYSKYLD[Aib]ARAESFVKWLEST-OH (SMILES CC(C)C[C@H](NC(=O)[C@H](Cc1c[nH]c2ccccc12)NC(=O)[C@H](CCCCN)NC(=O)[C@@H](NC(=O)[C@H](Cc1ccccc1)NC(=O)[C@H](CO)NC(=O)[C@H](CCC(=O)O)NC(=O)[C@H](C)NC(=O)[C@H](CCCNC(=N)N)NC(=O)[C@H](C)NC(=O)C(C)(C)NC(=O)[C@H](CC(=O)O)NC(=O)[C@H](CC(C)C)NC(=O)[C@H](Cc1ccc(O)cc1)NC(=O)[C@H](CCCCN)NC(=O)[C@H](CO)NC(=O)[C@H](Cc1ccc(O)cc1)NC(=O)[C@H](CC(=O)O)NC(=O)[C@H](CO)NC(=O)[C@@H](NC(=O)[C@H](Cc1ccccc1)NC(=O)[C@@H](NC(=O)CNC(=O)[C@H](CCC(N)=O)NC(=O)[C@H](CO)NC(=O)[C@@H](N)Cc1c[nH]cn1)[C@@H](C)O)[C@@H](C)O)C(C)C)C(=O)N[C@@H](CCC(=O)O)C(=O)N[C@@H](CO)C(=O)N[C@H](C(=O)O)[C@@H](C)O) [Compound 15]
0.07	H-HSQGTFTSDYSKYLDSARAEDFVKWLES-OH [Compound 13]
0.029	H-HSQGTFTSDYSKYLDLARAEDFVKWLEST-OH [Compound 17]
0.15	H-HSQGTFTSDYSKYLDEARAEDFVKWLEST-OH [Compound 14]
0.39	H-HSQGTFTSDYSKYLESARAESFVKWLEST-OH [Compound 16]

Further lines, the binder ahead of its results:

Binder	GCG-R EC50 in vitro [nM] (cAMP, AlphaScreen, HEK293 cells expressing human Glucagon-R)
H-HSQGTFTSDLSKYLDSARAEDFVKWLEST-OH [Compound 11]	0.11
H-HSQGTFTSDYSKYLD[Aib]ARAEDFVKWLEST-OH (SMILES CC(C)C[C@H](NC(=O)[C@H](Cc1c[nH]c2ccccc12)NC(=O)[C@H](CCCCN)NC(=O)[C@@H](NC(=O)[C@H](Cc1ccccc1)NC(=O)[C@H](CC(=O)O)NC(=O)[C@H](CCC(=O)O)NC(=O)[C@H](C)NC(=O)[C@H](CCCNC(=N)N)NC(=O)[C@H](C)NC(=O)C(C)(C)NC(=O)[C@H](CC(=O)O)NC(=O)[C@H](CC(C)C)NC(=O)[C@H](Cc1ccc(O)cc1)NC(=O)[C@H](CCCCN)NC(=O)[C@H](CO)NC(=O)[C@H](Cc1ccc(O)cc1)NC(=O)[C@H](CC(=O)O)NC(=O)[C@H](CO)NC(=O)[C@@H](NC(=O)[C@H](Cc1ccccc1)NC(=O)[C@@H](NC(=O)CNC(=O)[C@H](CCC(N)=O)NC(=O)[C@H](CO)NC(=O)[C@@H](N)Cc1c[nH]cn1)[C@@H](C)O)[C@@H](C)O)C(C)C)C(=O)N[C@@H](CCC(=O)O)C(=O)N[C@@H](CO)C(=O)N[C@H](C(=O)O)[C@@H](C)O) [Compound 12]	0.03
H-HSQGTFTSDYSKYLDSARAEDFVSWLEST-OH [Compound 10]	0.32
H-HSQGTFTSDYSKYLDSARAEEFVKWLEST-OH [Compound 9]	0.03
H-HSQGTFTSDYSKYLDSARAESFVKWLEST-OH [Compound 1]	0.064
